Experimental data published in a protein production outcome set (Wang et al. 2014).

Assay: label from the status in PepcDB records

Protein production, not failed:
MEERMEMISERPKESMYSWNKTAEKSDFEAVEALMSMSCSWKSDFKKYVENRPVTPVSDLSEEENLLPGTPDFHTIPAFCLTPPYSPSDFEPSQVSNLMAPAPSTVHFKSLSDTAKPHIAAPFKEEEKSPVSAPKLPKAQATSVIRHTADAQLCNHQTCPMKAASILNYQNNSFRRRTHLNVEAARKNIPCAAVSPNRSKCERNTVADVDEKASAALYDFSVPSSETVICRSQPAPVSPQQKSVLVSPPAVSAGGVPPMPVICQMVPLPANNPVVTTVVPSTPPSQPPAVCPPVVFMGTQVPKGAVMFVVPQPVVQSSKPPVVSPNGTRLSPIAPAPGFSPSAAKVTPQIDSSRIRSHICSHPGCGKTYFKSSHLKAHTRTHTGEKPFSCSWKGCERRFARSDELSRHRRTHTGEKKFACPMCDRRFMRSDHLTKHARRHLSAKKLPNWQMEVSKLNDIALPPTPAPTQ, MEETRPIDGLTDEDIREILTRYKKIALVGASPKPERDANIVMKYLLEHGYDVYPVNPKYEEVLGRKCYPSVLDIPDKIEVVDLFVKPKLTMEYVEQAIKKGAKVVWFQYNTYNREASKKADEAGLIIVANRCMMREHERLLGEK

Protein production, failed:
MEAMTLPPQDLPPGQALLATPLGTANAPQAARVHTYPLRFTGQASEYFRVWIVNLALTVITLGLYTPWARIRTRQYLYGHTWLDDQNFEYTASPFALLRGYLIVVAFFGLYTAAQQLQFTGWEWVTGALGLLFAVAYPWLVRQSMRFQARSTVHRGLRFRFTGSLGDAYVSYGVANIAAVFSGSLALPWAWFMQRRYQADGLAYGTARGHFRGSLGPFYLIGLAGAGLTVLGIGLLAGLAIGAATIAGVLGDLNLEQLDTDLLTSAVVVAFVLGYLALAVLYGIAWQYVRAATMHYVLNNFELGGVVRTQATFSPWRLVWINLANTLARIFSLGLLTPWTVIRTNRYLLGHVQVRAIVSLDDFSAAQTEDESAVGEAATELLDINIGF, MEAPTVLDVGCGDGARTLANLPPRSVGLDFSRAGLDLAAETVPDSRLVQGDMGSLPVTTDSVDAITAYHAVFHVQRDQHPEVYREFARVLRPGGTVLMTLPSGQFETVRRGWMGGSMFFSAPGRRATLDQLADAGFTETETVTATDPLGSDSEFVFATLADALEHHHHHH, MEDEHSRQAYVDQLGLLEEGADEVFEEILAAATSYFQTPIALISILDHQRQWFRASIGLDIRQTPRRDSFCAYAILGKGVFEVADATLDPRFRDNPYVQGEPRIRFYAGAPLATAEGLNLGSLCVIDREPRGPLAERDVAMLEHFARLVMARIHTLRSTNYIDEPTGLYNRLRLQEDVSLRLQRDGALTVIAADLLPLALLNTIIRTLGYPFSNDLMLEARDRIRAELPDFTLYKISPTRFGLLLPRQQQEETESVCLRLLRAFESPVVCRGIPIKANVGLGVLPLADDTLDGDQDWLRLVVSAADDARDRGVGWARYNPPLDQAQQRAFTLLTSLSQAIGTEEGFHLVYQPKIDLPTGRCTGVEALLRWRHPQLGFVSPAEFVPLAEKTALMRPLSDWVLRHAMAQLAQWNARNIPLRLAINVSASDMEDSSFLEEAVRLAKTYDIDLSALELEFTESVLIRDASAVGSVLLRARELGMGIAVDDFGTGYSNWTYLRDLPITAIKLDQSFTRDLAGSPKAQSVTQAVIGLASQLGYRVVAEGIETHDTFHLLQAWGCHEGQGYLIAQPMLPEQLEDWLRRLEHHHHHH, MEDIFSKRKTLRTIKADTSDYFIPLFHTLAVFLSTKETIITKRFLEHIMKNLIALTLLLGGSTLLCAQKPAKTPATYKPVKSEMYRKGWIDFNKNGVKDVYEDPSAPLEARIENLLQQMTLDEKTCQMVTLYGYKRVLKDDLPTPEWKELLWKDGIGAIDEHLNGFQQWGLPPSDNAYVWPASRHAWALNEVQRFFVEDTRLGIPVDFTNEGIRGVESYRATNFPTQLGLGHTWNRELIRQVGLITGREARMLGYTNVYAPILDVGRDQRWGRYEEVYGESPYLVAELGIEMVRGLQHNHQVAATGKHFAAYSNNKGAREGMARVDPQMSPREVENIHIYPFKRVIREAGMLGVMSSYNDYDGIPVQGSYYWLTTRLRGEMGFRGYVVSDSDAVEYLYTKHGTAKDMKEAVRQSVEAGLNVRCTFRSPDSFVLPLRELVKEGGLSEEVINDRVRDILRVKFLIGLFDAPYQTDLADADREVEKEENEAIALQASRESIVLLKNAGELLPLDINSTKKIAVCGPNANEEGYALTHYGPLAVEVTTVLEGIQEKTKGKAEVLYTKGCDLVDAHWPESEIIDYPLTDDEQAEIDKAVENARQADVAIVVLGGGQRTCGENKSRTSLDLPGRQLQLLQAIQATGKPVVLILINGRPLSINWADKFVPAILEAWYPGSKGGTALADILFGDYNPGGKLTVTFPKTVGQIPFNFPCKPSSQIDGGKNPGPTGNMSRINGALYPFGYGLSYTTFEYSDLDITPRVITPNESATVRLKVTNTGKRAGDEVVQLYIRDVLSSITTYEKNLAGFQRIHLEPGEAQELSFTIDRKHLELLDADMKWVVEPGDFVLMAGASSEDIRLNGTLTVEDYQTRAKAIEAQKPAKRVSASTNPEDAENVLDEKINTAWQGNKGDYITFALKNGAKVDKVAIAFTRDNNLPATFEIQLSGGGGQFLTVYSGTVSEYGKLISYPFKGTTASDLRIVLNDDRVSIAEVKF, MEDKAVSPIIATILLIAITVALAATFYTEVTPYFTEAQYYTPQAVTDVMNVSNGSSFSYDIYIQFFPANLTASQVEISLHVGSSYEYINLKMLSPFGKTTLNNGSITISQYPSAGYFTQGLIFVINSTLPLHSIIFVDLKTSSSINTVSI, MEDKKEYAKYAGFRIRFAAMLIDVVILVILFSIPVGFIYGQEYWQGEKLIYGFWDVLINYVIPAILTIFFWIKFLGTPGKMILKLRVVDEHTGGTLSIGKAIGRYFAYILSILPVFLGFFWIGFSDKKQGWHDILAGTVVIRSESKGPFEFRS, MEDKRISEKESLELIACMIRETQDNTARYAAYPLLIWGYTTVAISLVVWYFYLQTGVWQINFLWFALPVIAGPLTIFFNRKDKNKGAKNYIDRVTGQIWAVFGVVGFCLSCMAFVVRIDILFVISLLMGMGATLTGLVCKYKPLSIAGMTGIALSFSMLFIHGSGVYLVFAAIFIVMMIVPGHIMNKQMKKQCLKN, MEDLLVVGQIINTHGLRGEMKVMPLTEDMRRFDYLEYVILKGKKVKVEGVKYFKDKVILKLEGINSIEEAEKLKRTYLEIEREDAIELEEDEYFIVDLVGCTVVDTEGFEYGKIKDVIQTPSNDVYWVQGKKEVLVPVLKDIVLDINMDEKLITIRPSGEWQYEDLEHHHHHH, MEDSSGQSLLFQFILLLILTLLSAFFSASEMALVSLNRSRVEQKAEEGDKKFIRLLKVLENPNNFLSTIQVGITFIGLLQGASLSASLGAVIATWFGNVAWAKTAGSVVSLVVLTYISIVFGELYPKRIAMNLKENLAIYSAPVIIVTGKIVSPFVWILSASTNLLSRLTPMTFDDADEPMTRDEIEYMLTKSEDTLEAEEIEMLQGIFSLDELMAREVMVPRTDAFMIDIEDDTQENIQAILKQSFSRIPVYEDNKDKIIGVIHTKKLLKAAYELGFENVNLRRIMNEPLFVPETIFVDDLLAAFRNTNNQMAILLDEYGGVAGLVTFEDLLEEIVGEIDDETDKASVEVREIGENTYIVEGSMTLNDFNEHFDTELESDDVDTIAGYYLTGVGAIPTQEVKEHYEVINKDKRLEFINDKVKDGRVTKLKVIITAAPEEAGE, MEDTTFTKVFVGGLAWETHKVSLRNYFEQFGDIVEAVVITDKSSGRSKGYGFVTFCDPEAAQKACVDPAPVIDGRRANCNLAAFGVQRSKPSSPIHGTFRFLSFDTLLLKTLHQEYM, MEDYGFEYSDEEQEEQDVDIENQYYNSKGMVETEPEEALSGFAEVVQMEPEKADWGFKALKQTVKIYYRLGKYKEMMEAYTEMLTYIKSAVTRNYSEKCINNIMDFVSGSASQNTGLLQEFYQTTLKALEEAKNERLWFKTNLKLCNIWFDIGEYRRMTKILKELHKSCQKEDGTDDQKKGSQLLEVYAIEIQIYTETKDNKKLKQLYHKALAIKSAIPHPRIMGIIRECGGKMHMAERQWEEAATDFFEAFKNYDEAGNQRRIQCLKYLVLANMLMESEVNPFDGQEAKPYKNDPEILAMTNLIAAYQRNEIIEFERILKSNRRTIMDDPFIRNYMEDLLKKVRTQVLLKLIKPYTKIGIPFISKELNVPETDVTELLVSLILDSRIDGHIDEMNRYLLRGDSGNGRKLHKAVDKWNSQLKSLSSNITSRVC, MEEFQFTKRVHNILKIAAEEGESNIIQPVHLFIGMCKEGTGVCSELYMYLFRNVGTDFLEKLSLRKQDDLTDQEYEKIGQYKVSYKVLEILQIAKKRMERFQQVLMNEGHVIYALFRADTFIENPQIQKEILRIVEEPRDLAVDLKCFVPAYTHLTCHVRKANSSDFGKLVSFVSEEFGERWLHSIEYGFRTYKENVPIYIAEQKEVIVGFACYDVVRGKKGLFGPMGTAKQNRVKSVGKQLLHCSLHSMKQDGYEYAIIGQAGPVEFYERCCNARLIPIMDY, MEEKRRRARVQGAWAAPVKSQAIAQPATTAKSHLHQKPGQTWKNKEHHLSDREFVFKEPQQVVRRAPEPRVIDREGVYEISLSPTGVSRVCLYPGFVDVKEADWILEQLCQDVPWKQRTGIREDITYQQPRLTAWYGELPYTYSRITMEPNPHWHPVLRTLKNRIEENTGHTFNSLLCNLYRNEKDSVDWHSDDEPSLGRCPIIASLSFGATRTFEMRKKPPPEENGEYTYVERVKIPLDHGTLLIMEGATQADWQHRVPKEYHSREPRVNLTFRTVYPDPRGAPW, MEELQEPLRGQLRLCFTQAARTSLLLLRLNDAALRALQECQRQQVRPVIAFQGHRGYLRLPGPGWSCLFSFIVSQCCQEGAGGSLDLVCQRFLRSGPNSLHCLGSLRERLIIWAAMDSIPAPSSVQGHNLTEDARHPESWQNTGGYSEGDAVSQPQMALEEVSVSDPLASNQGQSLPGSSREHMAQWEVRSQTHVPNREPVQALPSSASRKRLDKKRSVPVATVELEEKRFRTLPLVPSPLQGLTNQDLQEGEDWEQEDEDMDPRLEHSSSVQEDSESPSPEDIPDYLLQYRAIHSAEQQHAYEQDFETDYAEYRILHARVGTASQRFIELGAEIKRVRRGTPEYKVLEDKIIQEYKKFRKQYPSYREEKRRCEYLHQKLSHIKGLILEFEEKNRGS, MEELSAAEPGPEPGPEPESAPESESEPGPAGAGDAPGDGVIVTRALTKRYRGGQLAVDGLDLTVPAGSVFGFLGPNGSGKTTTIRMLMGLIEPTSGTARVLGRPMPRSARTVLPHIGALIEGPALYGFLSGRDNLLRYDAADPTADPRTRRTRVAATLDRVGLTAAAGKKAKAYSLGMKQRLGLAAALLQPRRLLVLDEPTNGLDPQGMREIRSLVRELASDGTTVFLSSHLLDEIEQVCTHAAVMAQGRLITQGAVADLAAGARGRLVVTTPDVTDAARVLKEQGVADIVVAEDRVTGEPPDGELAELNAALVTAAVRVRGFGVERASLEDAFVALTGEGFDVAGLEHHHHHH, MEELTQILKNNRTDDLTWFCSLSESELDLLISLKKLAIQRAKISGHQELADKFDLKLLRSLGLVLMEHARKRVQNDTSLAPSVVHQLRLLDNCNLLKTHVDDAVDIEEILTQICDNKSKKKARKRRR, MEESLKVGIAGLGTVGSSVVRILREKANSLTCQCGRSIKVVAVSARDKSRNRGIDLSDVKWFDSPVEMASSDEIDVFVELIGGESDVVYAAVKKALETGHHVVTANKALLAQHGGRLAVSAEKKGVFLHFEAAVAGGIPIIKVMRESLVSNHISRIYGILNGTCNYILTRMFTEGLSFKECLEDAQRLGYAEVDPTFDIGGNDTAHKLALLTSLAFGTAVSLDDIYVEGISNISQIDIRAADELGYRIKLLGVALKTETGIEQRVHPTMVPTSSMIAQIHGVTNALSIQSDLLGELLLSGPGAGGTATASAVIGDLADIAKARPGFQYAPVLGRPALGLAPHKKARISHHAGGYFIRLNVHDRAGVFAAVAKHMAGNHISLESIVQRSFVESQSVKTIILITHETTEVNVQQALAAIEKDGHLVAKSQFIRIEPMVLEHHHHHH
